Kd, koff and kon data for one molecule are collected here from patent publication US20250332297A1, “DLL3-SPECIFIC BINDING CONSTRUCTS AND THEIR USE IN RADIOTHERAPY” (MOLECULAR PARTNERS AG, priority 2024, published 2025).

Experiment [1] concerns the target T1, Cyno DLL3-ECD (extracellular domain of cynomolgus macaque DLL3, residues 27 to 466, Avi-tag, 3C site, Fc knob … (cynomolgus macaque, UniProt A0A2K5WSR1 27-464, biotinylated at the Avi-tag (Example 11))).
T1 construct: range 27-466; also called cyno ECD; cynomolgus monkey DLL3; not shown: Avi-tag, 3C protease recognition site and Fc knob into hole
T1 sequence: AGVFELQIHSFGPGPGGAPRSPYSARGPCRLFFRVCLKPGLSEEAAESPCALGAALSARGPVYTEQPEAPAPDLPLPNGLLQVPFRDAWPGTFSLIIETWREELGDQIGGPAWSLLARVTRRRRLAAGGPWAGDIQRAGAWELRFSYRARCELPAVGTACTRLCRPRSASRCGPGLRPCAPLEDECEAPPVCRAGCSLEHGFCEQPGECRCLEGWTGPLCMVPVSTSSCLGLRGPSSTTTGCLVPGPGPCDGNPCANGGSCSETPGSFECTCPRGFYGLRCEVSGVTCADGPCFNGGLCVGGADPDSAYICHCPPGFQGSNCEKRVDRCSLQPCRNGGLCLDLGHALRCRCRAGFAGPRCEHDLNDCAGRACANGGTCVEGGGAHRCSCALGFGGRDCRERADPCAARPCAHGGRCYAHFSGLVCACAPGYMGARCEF
Briefly: SPR (ProteOn), biotinylated cyno DLL3-ECD on chip, DARPin conjugate as analyte, 1:1 Langmuir fit. Here is the method: (§1) The data were generated using BioRad ProteOn instrument in SPR running buffer (PBS, pH 7.4 containing 0.005% Tween 20©). […] The chip was coated with biotinylated target to reach a signal intensity of 1516 RU (human ECD), 257 RU (human NTD), 1500 RU (cyno ECD) and 228 RU (dog NTD). […] Each injection was followed by a regeneration step with 16 mM H₃PO₄ for 18 s. […] The obtained SPR traces were used to determine on-rate and off-rate interaction parameters.

A further experiment deals with T2, human serum albumin (human, UniProt P02768 25-609).
T2 construct: also called HSA
As to the kind of experiment: SPR (ProteOn), HSA on chip, DARPin conjugate as analyte, 1:1 Langmuir fit. How it is done: (§2) SPR multi-trace analyses were performed similarly as described in previous Examples.
(§3) All analytes (3-fold dilution ranging from 600-7.41 nM) were injected in succession for 240 s and dissociation was recorded for 600 s using a constant flow of 25 μl/min (HSA) or 100 μl/min (MSA) (25 μl/min).

Experiment [2] has as its target T3, Human DLL3-NTD (truncated human DLL3, N-Terminal Domain, residues 27-189, C-terminal 6xHis and Avi-tag) (human, UniProt Q9NYJ7 27-189).
T3 construct: also called hDLL3-NTD; human NTD; not shown: C-terminal 6xHis and Avi-tag
T3 sequence: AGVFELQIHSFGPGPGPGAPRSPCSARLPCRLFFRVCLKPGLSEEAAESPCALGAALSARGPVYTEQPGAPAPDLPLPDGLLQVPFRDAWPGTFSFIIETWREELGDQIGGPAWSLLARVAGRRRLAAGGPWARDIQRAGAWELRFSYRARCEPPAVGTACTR
As to the kind of experiment: SPR (ProteOn), biotinylated human DLL3-NTD on chip, DARPin conjugate as analyte, 1:1 Langmuir fit. How it is done:
as §1

Experiment [3] deals with T4, Dog DLL3-NTD (truncated dog DLL3, N-Terminal Domain, residues 27-189, C-terminal 6xHis and Avi-tag) (dog, UniProt A0A8I3MXZ5 27-188, biotinylated at the Avi-tag).
T4 construct: also called dog NTD; not shown: C-terminal 6xHis and Avi-tag
T4 sequence: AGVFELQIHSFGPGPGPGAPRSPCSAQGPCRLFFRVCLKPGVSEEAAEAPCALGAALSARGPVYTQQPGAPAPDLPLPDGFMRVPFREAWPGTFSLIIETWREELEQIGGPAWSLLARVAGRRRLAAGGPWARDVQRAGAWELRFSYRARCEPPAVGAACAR
As to the kind of experiment: SPR (ProteOn), biotinylated dog DLL3-NTD on chip, DARPin conjugate as analyte, 1:1 Langmuir fit. How it is done: as §1

Experiment [4] deals with T5, Human DLL3-ECD (recombinant extracellular domain of human DLL3, Examples 11, 17 and 19) (human, UniProt Q9NYJ7 27-466, biotinylated at the Avi-tag where immobilised (Examples 11 and 19)).
T5 construct: also called hDLL3-ECD; human ECD; not shown: Avi-tag and Fc knob into hole (order depends on the format)
T5 sequence: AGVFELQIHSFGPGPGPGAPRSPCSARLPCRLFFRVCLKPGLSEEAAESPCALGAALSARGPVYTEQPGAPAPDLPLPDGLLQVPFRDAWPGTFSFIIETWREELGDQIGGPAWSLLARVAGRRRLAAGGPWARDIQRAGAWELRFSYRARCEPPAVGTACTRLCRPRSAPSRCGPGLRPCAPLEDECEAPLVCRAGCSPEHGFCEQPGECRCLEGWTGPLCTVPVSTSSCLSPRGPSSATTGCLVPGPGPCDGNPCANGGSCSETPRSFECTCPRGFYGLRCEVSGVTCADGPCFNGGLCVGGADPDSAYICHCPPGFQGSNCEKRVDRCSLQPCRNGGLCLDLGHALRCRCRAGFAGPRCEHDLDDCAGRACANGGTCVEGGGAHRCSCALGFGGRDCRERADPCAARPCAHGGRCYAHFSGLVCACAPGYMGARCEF
As to the kind of experiment: SPR (ProteOn), biotinylated human DLL3-ECD on chip, DARPin conjugate as analyte, 1:1 Langmuir fit. How it is done: as §1

In the next experiment the target is T6, mouse serum albumin (mouse, UniProt P07724 25-608).
T6 construct: also called MSA
As to the kind of experiment: SPR (ProteOn), MSA on chip, DARPin conjugate as analyte, 1:1 Langmuir fit. Here is the method:
as §2, §3

In experiment [5] the target is T5, Human DLL3-ECD (recombinant …). As to the kind of experiment: SPR (ProteOn), biotinylated human DLL3-ECD on chip, DARPin conjugate as analyte, 1:1 Langmuir fit (same values as Table 14). How it is done: as §1

T6 sequence (P07724 25-608 limits assumed): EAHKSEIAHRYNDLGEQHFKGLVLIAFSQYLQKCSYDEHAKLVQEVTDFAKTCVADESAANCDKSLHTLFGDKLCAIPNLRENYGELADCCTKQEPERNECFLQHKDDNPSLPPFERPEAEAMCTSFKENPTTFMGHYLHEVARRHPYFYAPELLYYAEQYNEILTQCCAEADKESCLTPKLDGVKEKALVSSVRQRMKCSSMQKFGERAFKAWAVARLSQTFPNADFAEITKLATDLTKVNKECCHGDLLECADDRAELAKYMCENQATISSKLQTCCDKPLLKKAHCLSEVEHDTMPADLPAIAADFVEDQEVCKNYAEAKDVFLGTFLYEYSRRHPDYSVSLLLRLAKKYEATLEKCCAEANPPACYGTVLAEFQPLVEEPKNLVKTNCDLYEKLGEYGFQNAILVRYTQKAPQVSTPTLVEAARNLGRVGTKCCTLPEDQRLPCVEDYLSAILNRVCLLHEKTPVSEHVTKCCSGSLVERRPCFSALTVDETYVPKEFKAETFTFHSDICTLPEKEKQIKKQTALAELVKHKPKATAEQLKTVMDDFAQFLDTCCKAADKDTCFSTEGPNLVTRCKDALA

B1: MAM279-DOTAM (GS-MAM279-tag, SEQ ID NO: 15, conjugated to the chelator DOTAM) (designed binder)
chain: GSDLGKKLLEAARAGQDDEVRELLKAGADVNAKDYFSHTPLHLAARNGHLKIVEVLLKAGADVNAKDFAGKTPLHLAADAGHLEIVEVLLKAGADVNAQDIFGKTPADIAADAGHEDIAEVLQKAAGSPTPTPTTPTPTPTTPTPTPTGSDLGKKLLAAAAQGQDDEVRELLKAGANVNAKDLFGYTPLHLAAWRGHLEIVEVLLKAGADVNAKDAAGETPLHLAAWFGHLEIVEVLLKAGADVNAQDLQGKTPADLAAKEGHEDIAEVLQKAAGSGSC
notes: also called DOTAM-conjugated MAM279; MAM279 conjugate
On to B1, for which the Kd – broadly, the equilibrium constant for the complex coming apart – in experiment [1] is 34.6 nM; with human serum albumin, 98.2 nM; in experiment [2], 0.394 nM; in experiment [3] it was 1.46 nM; in experiment [4], 0.243 nM; in the experiment with mouse serum albumin, 274 nM. In addition, the Kd in experiment [5] was 0.243 nM. Further, the off-rate constant (koff) (usually the rate constant with which the complex falls apart) amounted to 0.00125 s⁻¹ in experiment [1]; 0.021 s⁻¹ with human serum albumin; 1.99e-05 s⁻¹ in experiment [2]; 4.86e-05 s⁻¹ in experiment [3]; 1.64e-05 s⁻¹ in experiment [4]; 0.0425 s⁻¹ with mouse serum albumin. Also, the off-rate constant (koff) in experiment [5] was determined as 1.64e-05 s⁻¹. Moreover, the kon (as a rule, the second-order rate constant of association) stood at 36000 M⁻¹ s⁻¹ in experiment [1]; 213000 M⁻¹ s⁻¹ in the experiment with human serum albumin; 50400 M⁻¹ s⁻¹ in experiment [2]; 33400 M⁻¹ s⁻¹ in experiment [3]; 67400 M⁻¹ s⁻¹ in experiment [4]; 155000 M⁻¹ s⁻¹ with mouse serum albumin. The kon in experiment [5] amounted to 67400 M⁻¹ s⁻¹.
